Here are results for one molecule from paper PMC10165364, “Pathological variants in TOP3A cause distinct disorders of mitochondrial and nuclear genome stability”.

The target of this data set is T1, TOP3A WT (Homo sapiens, UniProt Q13472 16-934).
T1 sequence: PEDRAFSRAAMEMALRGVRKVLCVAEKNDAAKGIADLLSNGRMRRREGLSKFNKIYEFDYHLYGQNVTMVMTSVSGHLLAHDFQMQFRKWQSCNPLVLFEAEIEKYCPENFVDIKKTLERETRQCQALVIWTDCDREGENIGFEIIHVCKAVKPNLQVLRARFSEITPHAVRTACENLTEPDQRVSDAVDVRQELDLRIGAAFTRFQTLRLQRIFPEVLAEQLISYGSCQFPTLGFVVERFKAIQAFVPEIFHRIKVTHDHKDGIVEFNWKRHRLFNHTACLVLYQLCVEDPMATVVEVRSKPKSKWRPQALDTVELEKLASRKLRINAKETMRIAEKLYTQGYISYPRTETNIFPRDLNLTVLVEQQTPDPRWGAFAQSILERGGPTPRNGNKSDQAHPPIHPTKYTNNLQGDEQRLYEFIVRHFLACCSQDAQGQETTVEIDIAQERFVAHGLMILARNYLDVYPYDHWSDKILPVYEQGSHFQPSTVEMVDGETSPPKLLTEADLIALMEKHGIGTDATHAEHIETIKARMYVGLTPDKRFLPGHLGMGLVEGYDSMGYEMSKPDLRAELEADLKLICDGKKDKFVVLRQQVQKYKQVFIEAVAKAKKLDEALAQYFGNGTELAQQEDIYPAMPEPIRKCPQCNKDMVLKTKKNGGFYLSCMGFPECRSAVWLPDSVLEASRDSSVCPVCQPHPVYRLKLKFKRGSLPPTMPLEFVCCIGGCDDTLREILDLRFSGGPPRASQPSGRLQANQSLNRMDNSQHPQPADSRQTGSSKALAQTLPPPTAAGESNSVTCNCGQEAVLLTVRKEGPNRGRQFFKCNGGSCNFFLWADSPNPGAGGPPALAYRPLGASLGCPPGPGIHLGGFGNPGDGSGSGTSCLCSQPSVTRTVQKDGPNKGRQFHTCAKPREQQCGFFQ
The data set can be described thus: EMSA; two shifted bands (two TOP3A molecules); 25 mM HEPES pH 7.5, 70 mM NaCl, 100 ug/ml BSA, 1 mM DTT, 10% glycerol; 10 fmol oligo, 0-250 fmol TOP3A in 20 ul; 37 C 15 min, then ice; 8% native PAGE in 0.5x TBE at 4 C. As to conditions: protein: recombinant; tags: N-terminal TEV-cleavable 6xHis, cleaved; label: 5' 32P; single strand. (In general: A gel shift assay detects complexes by their altered migration in electrophoresis.)

B1: EMSA substrate 80-mer (ssDNA)
DNA: ACCACATTAACAACATAAAACCCTCATTCACACGAGAAAACACCCTCATGTTCATACACCTATCCCCCATTCTCCTCCTA
For the molecule B1, the binding result is listed as “binds”.
